Assay results taken from patent US20130143822A1, “AGENTS FOR TREATING ALZHEIMER'S DISEASE” (priority 2010, published 2013).

What was measured:
Aβ1-42 = Aβ1-42 (Homo sapiens, UniProt P05067); assay: Density gradient centrifugation (iodixanol gradient 5-50%) of Aβ-peptide mixtures, SDS-PAGE and silver staining; format: biochemical; settings: 125 μM Aβ and 125 mM peptide
Experimental: L3 precipitates Aβ oligomers from complex mixtures of different Aβ forms. The size distributions of Aβ in solution and in Aβ-peptide mixtures were examined by way of sedimentation analysis on an iodixanol gradient (5-50%). The mixtures contained 125 μM Aβ and 125 mM peptide, respectively. After centrifugation, 14 fractions of 140 μl each were obtained from the surface by sequential pipetting and analyzed by means of denatured polyacrylamide gel electrophoresis SDS-PAGE and subsequent silver staining. […] Large aggregates form, which in subsequent experiments are described as amorphous, not fibrillary and not amyloidogenic.

[1] = biological target: Aβ1-42 oligomeric particles (Homo sapiens, UniProt P05067); assay: Dynamic light scattering, hydrodynamic radius of Aβ1-42 particles; format: biochemical; settings: 5 μM Aβ1-42 oligomeric particles, 50 μM L3, immediately and after 20 minutes, 25° C.
Chain of Aβ1-42 oligomeric particles (P05067 672-713 limits assumed): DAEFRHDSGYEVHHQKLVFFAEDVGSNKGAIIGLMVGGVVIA
Experimental: Dynamic light scattering is used to determine the hydrodynamic radius of particles in solution or suspension. A 5 μM sample of Aβ1-42 oligomeric particles was diluted by adding a 50 μM L3 sample on the one hand, and buffer (50 mM sodium phosphate, 100 mM NaCl, pH 7.4) on the other hand. The hydrodynamic radius of the Aβ1-42 particles with and without L3 was measured using a DynaPro light scattering system, immediately after the sample was prepared and after 20 minutes. A 655.6 nm laser (13 mW/58% laser intensity) was used. The measuring time was 2 seconds, and the measurement temperature was 25° C. Spherical sedimented particles were assumed for calculating the hydrodynamic radius.

Aβ [2] = biological target: T1, Aβ (Homo sapiens, UniProt P05067); assay: Turbidimetric test of Aβ aggregation (absorption at 355 nm); format: biochemical; settings: 25 μM Aβ with 1 mM L3
T1 construct: joint stock solutions made of 25 μM Aβ (light bars) and 25 μM Aβ with 1 mM L3
T1 sequence (P05067 672-713 limits assumed): as above
Experimental: (§1) Both tests were prepared from joint stock solutions made of 25 μM Aβ (light bars) and 25 μM Aβ with 1 mM L3 (dark bars). In the ThT test, 5 μl of the solutions was mixed with 200 μl ThT solution (5 μM ThT; 50 mM glycerin pH 8.5) and measured at λex 440 nm and λem=490 nm in the fluorescence spectrometer. ThT is a dye which, when bound to regular fibrils, has higher fluorescence and therefore serves as a measure of the fibrillation. In the turbidimetric test, the clouding of the solution was measured in the UV/VIS spectrometer as a measure of the aggregation as absorption at 355 nm.

Aβ [3] = biological target: T1, Aβ; assay: Seeding test: amyloidogenic properties of Aβ-L3 aggregates by ThT fluorescence over time; format: biochemical; settings: seeds 20% v/v added to freshly prepared Aβ, compared with Aβ without seeds
Experimental: Amyloidogenic seeds are particles which act as “nuclei” and expedite the aggregation process. With regard to the aggregation of Aβ, it is known that existing Aβ oligomers/seeds considerably expedite the aggregation process of monomers. For the experiment, seeds were produced which consisted of Aβ (triangles) and such, which consisted of Aβ and L3 (squares). After incubating Aβ and A-L3 mixtures for 5 days, the seeds were centrifuged off and washed. The seeds (20% v/v) were added to freshly prepared Aβ in the ThT test. Aβ without seeds (rhombi) were measured for control purposes. […] This is an indication that Aβ-D3 aggregates no longer have amyloid structures.

Aβ1-42 oligomers = Aβ1-42 oligomers (Homo sapiens, UniProt P05067); assay: Surface plasmon resonance, Aβ1-42 monomers, oligomers and fibrils immobilized on a CM5 biosensor chip; format: binding
Chain of Aβ1-42 oligomers (P05067 672-713 limits assumed): as above
Experimental: L3 is shown in section A and D3 is shown in section B of the figure. […] Aβ1-42 monomers (dashed lines), oligomers (solid lines) and fibrils (dotted line) were immobilized on a CM5 biosensor chip. Interaction analyses were carried out by means of surface […]. RU: resonance units. In each case, 25 μl peptide solution (100 μg/ml) was injected. […] The same results are also obtained for Aβ1-40 oligomers.

Aβ [4] = biological target: T1, Aβ; assay: Thioflavin T test of Aβ aggregation; format: biochemical; settings: 25 μM Aβ with 1 mM L3
Experimental: as §1

[5] = SPR, 25 μl peptide solution (100 μg/ml) injected

Chain of Aβ1-42 (P05067 672-713 limits assumed): as above

L3: L3 peptide, which according to the invention binds to Aβ oligomers (LRMMLQIKRIPR)
content of Aβ oligomers after density gradient centrifugation (Aβ1-42): significantly reduce
reduction of Aβ oligomer content compared with D3 (Aβ1-42; at the analyzed time): to a greater degree than D3
formation of large Aβ aggregates (hydrodynamic radius) [1]: favorable in terms of the fast formation of large Aβ aggregates
development of Aβ aggregates (clouding) (Aβ [2]): fast development of large Aβ aggregates
acceleration of Aβ aggregation by seeds composed of Aβ and L3 (Aβ [3]): do not result in any accelerated aggregation
binding to Aβ1-42 oligomers (Aβ1-42 oligomers; [5]): very clear binding
maximum resonance (RU) compared with D3 (Aβ1-42 oligomers; [5]): higher maximum resonance than D3
binding strength compared with D3 (Aβ1-42 oligomers; SPR, FIG. 1): stronger binding than D3
binding to the Aβ peptide compared with peptide D3 (Aβ1-42 oligomers; general statement): better binding
ThT test result of the Aβ aggregates (fibrillary structure) (Aβ [4]): negative
